This is an account of results in PMC6235398, “Unveiling the structural features that determine the dual methyltransferase activities of Streptococcus pneumoniae RlmCD”.

Series [1] has as its target T1, RlmCD 1-454 E443Q (Streptococcus pneumoniae, UniProt Q97R12 1-454, E443Q). Nature of the series: X-ray crystallography; SAH (SAM added); covalent C408-U747; EMSA: 20 mM Tris-HCl pH 8.0, 250 mM NaCl, 1 mM MgCl2, 0.5 uM FAM-RNA, 5 uM SAH, 0-5 uM protein, 37 C 30 min; 10% native PAGE on ice. The settings on record: protein: recombinant; tags: 8xHis-SUMO removed by ULP1; single strand.

In the next series the target is RlmCD Q283A (Streptococcus pneumoniae, UniProt Q97R12 1-543, Q283A). Nature of the series: EMSA; 5 uM SAH; not severely affected vs WT; EMSA: 20 mM Tris-HCl pH 8.0, 250 mM NaCl, 1 mM MgCl2, 0.5 uM FAM-RNA, 5 uM SAH, 0-5 uM protein, 37 C 30 min; 10% native PAGE on ice. The settings on record: protein: recombinant, tags: 8xHis-SUMO removed by ULP1, label: 5'-FAM. A general note: In EMSA bound probe runs differently from free probe, usually more slowly.

The target in the next series is RlmCD D381A (Streptococcus pneumoniae, UniProt Q97R12 1-543, D381A). Described as above. The settings on record: protein: recombinant, tags: 8xHis-SUMO removed by ULP1, label: 5'-FAM.
In series [2] the target is T1, RlmCD 1-454 E443Q. Nature of the series: X-ray crystallography; SAH (SAM added); covalent C408-U747; space group P1, two complexes per asymmetric unit; EMSA: 20 mM Tris-HCl pH 8.0, 250 mM NaCl, 1 mM MgCl2, 0.5 uM FAM-RNA, 5 uM SAH, 0-5 uM protein, 37 C 30 min; 10% native PAGE on ice. Particulars: protein: recombinant; tags: 8xHis-SUMO removed by ULP1; hairpin, 2 bp stem (743-754, 744-753).

The target in another series is RlmCD F145A (Streptococcus pneumoniae, UniProt Q97R12 1-543, F145A). Kind of series: EMSA; 5 uM SAH; almost no effect vs WT; EMSA: 20 mM Tris-HCl pH 8.0, 250 mM NaCl, 1 mM MgCl2, 0.5 uM FAM-RNA, 5 uM SAH, 0-5 uM protein, 37 C 30 min; 10% native PAGE on ice. Particulars: protein: recombinant; tags: 8xHis-SUMO removed by ULP1; label: 5'-FAM; 5' single strand with 3' hairpin.

The next series deals with RlmCD WT (Streptococcus pneumoniae, UniProt Q97R12 1-543). Kind of series: EMSA; 5 uM SAH; two shifted bands; EMSA: 20 mM Tris-HCl pH 8.0, 250 mM NaCl, 1 mM MgCl2, 0.5 uM FAM-RNA, 5 uM SAH, 0-5 uM protein, 37 C 30 min; 10% native PAGE on ice. Particulars: protein: recombinant; tags: 8xHis-SUMO removed by ULP1; label: 5'-FAM; 5' single strand with 3' hairpin.
Series [3] addresses T1, RlmCD 1-454 E443Q. Kind of series: X-ray crystallography; SAH (SAM added); covalent C408-U1939; 3.10 A; EMSA: 20 mM Tris-HCl pH 8.0, 250 mM NaCl, 1 mM MgCl2, 0.5 uM FAM-RNA, 5 uM SAH, 0-5 uM protein, 37 C 30 min; 10% native PAGE on ice. Particulars: protein: recombinant; tags: 8xHis-SUMO removed by ULP1; single strand.
Setting [4] is: hairpin, 2 bp stem (743-754, 744-753).
The mark [5] stands for this setting: 5' single strand with 3' hairpin.

GUUGAAAA (ssRNA, m5 at U747 formed in crystal, covalent to C408) [U747L]: the binding result with RlmCD 1-454 E443Q [1] was “binds”.

CCGUUGAAAAGG (structured_RNA) [FAM-U747SL]: the binding result in the series with RlmCD Q283A (setting [4]) and with RlmCD D381A (setting [4]) was “binds” each time.

In the case of CCGUUGAAAAGG (structured_RNA, m5 at U747 formed in crystal, covalent to C408) [U747SL], the binding result in the series with RlmCD 1-454 E443Q [2] is “binds”.

With GCGAAAUUCCUUGUCGGGUAAGUUCCGACC (structured_RNA) [FAM-U1939 30-nt], the binding result in the series with RlmCD Q283A (setting [5]), with RlmCD D381A (setting [5]), with RlmCD F145A and with RlmCD WT was “binds” throughout.

Regarding AAAUUCCU (ssRNA, m5 at U1939 formed in crystal, covalent to C408) [U1939L], the binding result in the series with RlmCD 1-454 E443Q [3] is reported as “binds”.
